Ends that are not written are not given here. * marks the point of attachment. Fluorescein(5-Mal) = O=C1OC2(c3ccc(O)cc3Oc3cc(O)ccc32)c2ccc(N3C(=O)CC(*)C3=O)cc21

Assay [1] has as its target human CPSF30 full-length (residues 1–244) Y127A mutant (human, UniProt O95639-2 1-244, Y127A). Briefly: SEC.
For assay [2], the target named is human CPSF30 full-length (residues 1–244) Y151A mutant (human, UniProt O95639-2 1-244, Y151A). As to the kind of experiment: SEC.
The target in assay [3] is T1, human CPSF30 ZF2–C terminus (residues 62–244), wild type (human, UniProt O95639-2 62-244). As to the kind of experiment: fluorescence polarisation.
Assay [4] deals with T2, human CPSF30 (residues 62–244) Y151A mutant (human, UniProt O95639-2 62-244, Y151A). As to the kind of experiment: fluorescence polarisation.
The target in assay [5] is T3, human CPSF30 (residues 62–244) Y127A mutant (human, UniProt O95639-2 62-244, Y127A). As to the kind of experiment: fluorescence polarisation.
The target in assay [6] is human CPSF30 ZF4–ZF5 (residues 114–173) (human, UniProt O95639-2 114-173). As to the kind of experiment: crystal structure.
In assay [7] the target is T1, human CPSF30 ZF2–C terminus (residues …). Briefly: SEC.
For assay [8], the target named is T2, human CPSF30 (residues 62–244) Y151A …. As to the kind of experiment: SEC.
For assay [9], the target named is T3, human CPSF30 (residues 62–244) Y127A …. Briefly: SEC.
In assay [10] the target is CPSF30 (full-length, Y151A)–hFip1 (residues 79–200) complex (human, UniProt O95639-2 1-244; Q6UN15 79-200, Y151A). As to the kind of experiment: SEC.
Assay [11] has as its target CPSF30 (full-length, Y127A)–hFip1 (residues 79–200) complex (human, UniProt O95639-2 1-244; Q6UN15 79-200, Y127A). Briefly: SEC.
The target in assay [12] is CPSF30 (full-length, wild type)–hFip1 (residues 79–200) complex (human, UniProt O95639-2 1-244; Q6UN15 79-200). Briefly: SEC.

B1: hFip1 (residues 79–200) (domain or fragment, human, UniProt Q6UN15 79-200, looked up)
chain: TETEDDSDSDSDDDEDDVHVTIGDIKTGAPQYGSYGTAPVNLNIKTGGRVYGTTGTKVKGVDLDAPGSINGVPLLEVDLDSFEDKPWRKPGADLSDYFNYGFNEDTWKAYCEKQKRIRMGLE
B1: the “stoichiometry N” value in assay [1] and in assay [2] was 1 hFip1 per CPSF30 throughout.

B2: hFip1 (residues 159–200) S159C/C189S mutant, FAM-labeled (domain or fragment, human, UniProt Q6UN15 159-200, looked up)
chain: C(Fluorescein(5-Mal))FEDKPWRKPGADLSDYFNYGFNEDTWKAYSEKQKRIRMGLE
Consider B2, for which the Kd is 0.69 ± 0.31 nM in [3], 1.8 ± 0.4 nM in [4] and 220 ± 32 nM in assay [5].

B3: hFip1 (residues 159–200) (domain or fragment, human, UniProt Q6UN15 159-200, looked up)
chain: SFEDKPWRKPGADLSDYFNYGFNEDTWKAYCEKQKRIRMGLE
For the molecule B3, the “stoichiometry N” value in [6] stood at 2 hFip1 per CPSF30; in assay [7], 2 hFip1 per CPSF30; in [8] it was 1 hFip1 per CPSF30; in [9], 1 hFip1 per CPSF30.

B4: catalytic module of human poly(A) polymerase α (residues 1–524) (domain or fragment, UniProt P51003 1-524, looked up)
chain: MPFPVTTQGSQQTQPPQKHYGITSPISLAAPKETDCVLTQKLIETLKPFGVFEEEEELQRRILILGKLNNLVKEWIREISESKNLPQSVIENVGGKIFTFGSYRLGVHTKGADIDALCVAPRHVDRSDFFTSFYDKLKLQEEVKDLRAVEEAFVPVIKLCFDGIEIDILFARLALQTIPEDLDLRDDSLLKNLDIRCIRSLNGCRVTDEILHLVPNIDNFRLTLRAIKLWAKRHNIYSNILGFLGGVSWAMLVARTCQLYPNAIASTLVHKFFLVFSKWEWPNPVLLKQPEECNLNLPVWDPRVNPSDRYHLMPIITPAYPQQNSTYNVSVSTRMVMVEEFKQGLAITDEILLSKAEWSKLFEAPNFFQKYKHYIVLLASAPTEKQRLEWVGLVESKIRILVGSLEKNEFITLAHVNPQSFPAPKENPDKEEFRTMWVIGLVFKKTENSENLSVDLTYDIQSFTDTVYRQAINSKMFEVDMKIAAMHVKRKQLHQLLPNHVLQKKKKHSTEGVKLTALNDSSLD
B4: the results for the “stoichiometry N” value in assay [10], in assay [11] and in [12] were 1 PAP per CPSF30–hFip1 complex, 1 PAP per CPSF30–hFip1 complex and 2 PAP per CPSF30–hFip1 complex, respectively.

(Values after PMC7706699 (Genes & Development, 2020).)
